Among the data in paper PMC3947336 are stoichiometry N values, retold here.

Assay [1] concerns the target Bxz2 Int (mycobacteriophage Bxz2 serine-integrase, gene 34) (mycobacteriophage Bxz2). The assay is described as follows: native gel or EMSA.
In assay [2] the target is Bxz2 MBP-Int fusion protein (mycobacteriophage Bxz2). In words: native gel or EMSA.

In assay [1], “Bxz2 Int (mycobacteriophage Bxz2 serine-integrase, gene 34) (enzyme)” came in with a stoichiometry N of 2.

Take Bxz2 MBP-Int fusion protein (enzyme): the stoichiometry N in assay [2] worked out at 2.
